Assay results taken from US10144929B2, “Polypeptide inhibitors of Smad3 polypeptide activities” (Mayo Foundation for Medical Education and Research, priority 2016, dated 2018).

Assays:
Format in all cases: cell-based
[1] = biological target: T1, pSmad3 (Mus musculus, UniProt Q8BUN5); assay: Nuclear import of pSmad3 (nuclear fractions Western, immunofluorescence) in AKR-2B cells; settings: 90 minutes transduction, TGFβ 5 ng/mL 1 hour
T1 construct: endogenous in cells; host or cells: AKR-2B cells
Procedure: FIGS. 1A-C. SH3 domain of sorting nexin 9 (SNX9) specifically binds pSmad3 and prevents nuclear import. (A) Cartoon depicting domains in full length (FL) SNX9 and constructs used for GST pull down assays. Lysates from AKR-2B cells untreated (−) or stimulated (+) for 45 minutes with 5 ng/mL TGFβ were incubated with GST beads or the indicated fusion polypeptides immobilized on GST beads. Bound polypeptides were eluted and assessed by Western analysis for pSmad3 or pSmad2. Cell lysate reflects signal obtained from 10 μg total protein. (B) AKR-2B cells were transduced for 90 minutes with the indicated concentrations of the TAT-SNX9(SH3) fusion polypeptides. […] Quantitation of nuclear pSmads was performed with Image J software and represents the mean+/−sd of two experiments (Right). […] Quantitation of nuclear Smad3 from 30 cells in each of two experiments (Right).
(§1) FIGS. 3A-E. Inhibition of Smad3 signaling by a defined region of the SH3 domain in SNX9. […] (B) Nuclear fractions were prepared and assessed as in FIG. 1B following transduction with the indicated TAT-SNX9(SH3) fusion polypeptide (Left). Quantitation (mean+/−sd) of nuclear pSmad2 or pSmad3 from 2 experiments (Right). (C) Immunofluorescence of nuclear Smad3 was determined as in FIG. 1C from 30 cells in each of two experiments in the absence (−) or presence (+) of 5 ng/mL TGFβ and the indicated TAT-SNX9(SH3) fusion polypeptide (1.5 μM). […]

[2] = tested on: Smad3 targets (PAI-1, CTGF, Smad7); assay: RT-PCR/qPCR/Western of Smad3 responsive genes in AKR-2B cells; settings: 5 ng/mL TGFβ, 24 hours
Procedure: (§2) FIGS. 2A-C. TAT-SH3 inhibits Smad3-dependent responses. (A) AKR-2B cells were transiently transfected with a Smad3 (3TP), Smad2 (ARE), or Smad1/5/8 (BRE) reporter construct, and luciferase activity determined following 12 hours incubation in the absence (−) or presence (+) of the indicated ligand (5 ng/mL TGFβ; 10 ng/mL BMP4) or TAT-SNX9(SH3) fusion polypeptide (1.5 μM). Data represent the mean+/−SEM of three experiments. (B) RT-PCR analysis of Smad3 (PAI-1 and CTGF) and Smad2 (MMP2) responsive gene following 24 hour treatment of AKR-2B cells with the indicated concentration of TAT-SNX9(SH3) fusion polypeptide or 5 ng/mL TGFβ. Loading was verified by GAPDH expression. (C) Soft agar colony formation was performed following seven days growth in the presence (+) or absence (−) of TGFβ (10 ng/mL) or the indicated TAT-SNX9(SH3) fusion polypeptide (1.5 μM). […]
as §1

[3] = tested on: AKR-2B cells; assay: Soft agar colony formation (anchorage-independent growth, AIG); settings: 1.5 μM polypeptide, TGFβ 10 ng/mL, seven days
Procedure: as §2, §1

[4] = biological target: T2, pSmad2 (Mus musculus, UniProt Q62432); assay: Nuclear import of pSmad2 (nuclear fractions Western) in AKR-2B cells; settings: 90 minutes transduction, TGFβ 5 ng/mL 1 hour
T2 construct: nuclear fractions were isolated, and Western blotted for pSmad2, pSmad3, or histone deacetylase 1 (HDAC); endogenous in cells; host or cells: AKR-2B cells
Procedure: FIGS. 1A-C. SH3 domain of sorting nexin 9 (SNX9) specifically binds pSmad3 and prevents nuclear import. (A) Cartoon depicting domains in full length (FL) SNX9 and constructs used for GST pull down assays. Lysates from AKR-2B cells untreated (−) or stimulated (+) for 45 minutes with 5 ng/mL TGFβ were incubated with GST beads or the indicated fusion polypeptides immobilized on GST beads. Bound polypeptides were eluted and assessed by Western analysis for pSmad3 or pSmad2. Cell lysate reflects signal obtained from 10 μg total protein. (B) AKR-2B cells were transduced for 90 minutes with the indicated concentrations of the TAT-SNX9(SH3) fusion polypeptides. Following washing and 1 hour TGFβ (5 ng/mL) treatment, nuclear fractions were isolated, and Western blotted for pSmad2, pSmad3, or histone deacetylase 1 (HDAC) (Left). Quantitation of nuclear pSmads was performed with Image J software and represents the mean+/−sd of two experiments (Right). (C) AKR-2B cells were transduced as in (B) with TAT-SH3 or TAT-LC (1.8 μM) and treated+/−TGFβ (5 ng/mL) for 1 hour. Immunofluorescence for Smad3 or the HA-tagged TAT-SNX9(SH3) fusion polypeptide was performed, and nuclei were stained with DAPI (Left panels). Quantitation of nuclear Smad3 from 30 cells in each of two experiments (Right).
AKR-2B cells were grown in DMEM supplemented with 10% fetal bovine serum (FBS). […]

[5] = tested on: Smad3 (3TP) reporter; assay: Smad3 (3TP) luciferase reporter assay in AKR-2B cells; settings: 1.5 μM polypeptide, 5 ng/mL TGFβ, 12 hours
Procedure: (§3) FIGS. 2A-C. TAT-SH3 inhibits Smad3-dependent responses. (A) AKR-2B cells were transiently transfected with a Smad3 (3TP), Smad2 (ARE), or Smad1/5/8 (BRE) reporter construct, and luciferase activity determined following 12 hours incubation in the absence (−) or presence (+) of the indicated ligand (5 ng/mL TGFβ; 10 ng/mL BMP4) or TAT-SNX9(SH3) fusion polypeptide (1.5 μM). Data represent the mean+/−SEM of three experiments. (B) RT-PCR analysis of Smad3 (PAI-1 and CTGF) and Smad2 (MMP2) responsive gene following 24 hour treatment of AKR-2B cells with the indicated concentration of TAT-SNX9(SH3) fusion polypeptide or 5 ng/mL TGFβ. Loading was verified by GAPDH expression. (C) Soft agar colony formation was performed following seven days growth in the presence (+) or absence (−) of TGFβ (10 ng/mL) or the indicated TAT-SNX9(SH3) fusion polypeptide (1.5 μM). Data reflects the mean+/−sd of triplicate wells from three experiments.
(§4) For luciferase assays, 2×10^5 cells were plated in six well plates containing 10% FBS/DMEM. […] Cells were harvested in 200 μL of reporter lysis buffer (Promega, Madison, Wis.), and luciferase activity was determined in a Berthold Lumat 9507 luminometer after normalization for transfection efficiency with β-galactosidase.

[6] = tested on: Smad2 (ARE) reporter; assay: Smad2 (ARE) luciferase reporter assay in AKR-2B cells; settings: 1.5 μM polypeptide, 5 ng/mL TGFβ, 12 hours
Procedure: as §3, §4

[7] = tested on: Smad1/5/8 (BRE) reporter; assay: Smad1/5/8 BMP (BRE) luciferase reporter assay in AKR-2B cells; settings: 1.5 μM polypeptide, 10 ng/mL BMP4, 12 hours
Procedure: as §3
FIGS. 4A-E. A point mutant of TAT-SH3-2 abolishes the inhibitory action on Smad3 responses. […] (E) AKR-2B cells were transiently transfected with a BMP (BRE), EGF (SRE), or PDGF (MMP-1) reporter construct and luciferase activity determined following 12 hour incubation in the absence (−) or presence (+) of the indicated ligand (10 ng/mL BMP4, EGF, or PDGF), inhibitor (10 μM Dorsomophin; 3 μM Lapatinib; 2 μM CP868) or TAT-SNX9(SH3) fusion polypeptide (1.5 μM). […]

[8] = tested on: Smad2 targets (MMP2, Goosecoid, Furin, MixL); assay: RT-PCR/qPCR of Smad2 responsive genes in AKR-2B cells; settings: 5 ng/mL TGFβ, 24 hours
Procedure: as §2, §1

T1 sequence (Q8BUN5 whole entry): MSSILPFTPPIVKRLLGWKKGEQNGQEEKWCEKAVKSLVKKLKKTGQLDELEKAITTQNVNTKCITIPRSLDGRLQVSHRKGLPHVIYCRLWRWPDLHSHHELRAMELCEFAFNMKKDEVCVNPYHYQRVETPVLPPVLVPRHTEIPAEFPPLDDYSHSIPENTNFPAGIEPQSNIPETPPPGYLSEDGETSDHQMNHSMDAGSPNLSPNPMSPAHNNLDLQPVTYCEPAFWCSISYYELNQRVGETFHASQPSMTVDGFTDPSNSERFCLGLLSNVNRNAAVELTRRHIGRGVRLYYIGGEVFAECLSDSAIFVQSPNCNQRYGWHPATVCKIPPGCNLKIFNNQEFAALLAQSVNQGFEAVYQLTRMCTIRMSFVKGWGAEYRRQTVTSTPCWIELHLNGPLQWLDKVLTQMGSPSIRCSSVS
T2 sequence (Q62432 whole entry): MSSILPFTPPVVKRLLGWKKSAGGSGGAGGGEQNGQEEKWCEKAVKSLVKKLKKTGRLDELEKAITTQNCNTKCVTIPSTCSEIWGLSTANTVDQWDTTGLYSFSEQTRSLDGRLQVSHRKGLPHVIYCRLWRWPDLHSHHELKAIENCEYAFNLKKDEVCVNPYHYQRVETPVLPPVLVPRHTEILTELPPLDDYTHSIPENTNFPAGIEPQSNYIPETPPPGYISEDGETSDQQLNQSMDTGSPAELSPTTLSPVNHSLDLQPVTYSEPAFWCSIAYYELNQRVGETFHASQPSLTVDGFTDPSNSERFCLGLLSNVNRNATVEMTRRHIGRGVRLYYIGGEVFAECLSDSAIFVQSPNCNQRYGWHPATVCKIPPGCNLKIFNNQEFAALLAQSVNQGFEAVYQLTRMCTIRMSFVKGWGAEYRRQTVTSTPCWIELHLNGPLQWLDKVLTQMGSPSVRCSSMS

| Molecule | nuclear import of pSmad3 [1] | TGFβ induction of Smad3 targets / Smad3-dependent transcriptional responses [2] | TGFβ-stimulated anchorage-independent growth in soft agar (AIG) [3] | nuclear import of pSmad2 [4] | Smad3-dependent luciferase activity inhibited [5] | Smad2 signaling (luciferase) [6] | Smad1/5/8 (i.e., BMP) signaling (luciferase) [7] | induction of Smad2 targets [8] |
| --- | --- | --- | --- | --- | --- | --- | --- | --- |
| TAT-LC: SNX9 LC (low complexity) domain fused to cell penetrating TAT polypeptide; negative control (protein, left off: a dimerising Fc or GST) DGKDQFSCGNSVADQAFLDSLSASTAQASSSAASNNHQVGSGNDPWSAWSASKSGNWESSEGWGAQPEGAGAQRNTNTPNNWDTAFGHPQAYQGPATGDDDDWDEDWDGPKSSSYFKDSESADAGGAQRGNSRASSSSMKI | ineffective in modulating nuclear translocation | inert | inert | – | – | – | – | – |
| TAT-SH3: TAT-SNX9(SH3) fusion polypeptide containing the full length SH3 domain (amino acids 1 to 62) (protein, left off: small tags and cut ends) MATKARVMYDFAAEPGNNELTVNEGEIITITNPDVGGGWLEGRNIKGERGLVPTDYVEILPS | inhibited nuclear import of pSmad3 in a dose-dependent manner | inhibited | inhibited | no effect | about 70% | no discernible effect | no discernible effect | unaffected |
